The target of one assay is V2R-βarr1 complex (Homo sapiens (Human). ; Rattus …, UniProt P30518;P29066). Put plainly: co-IP.
In another assay the target is C5aR1-βarr1 complex (Homo sapiens (Human). ; Rattus …, UniProt P21730;P29066). As to the kind of experiment: co-IP.

B1: Intrabody30 (scFv, V domains shown)
VH: EVQLVESGGGLVQPGGSLRLSCAASGFNVYSSSIHWVRQAPGKGLEWVASISSYYGYTYYADSVKGRFTISADTSKNTAYLQMNSLRAEDTAVYYCARSRQFWYSGLDYWGQGTLVTVSS
VL: DIQMTQSPSSLSASVGDRVTITCRASQSVSSAVAWYQQKPGKAPKLLIYSASSLYSGVPSRFSGSRSGTDFTLTISSLQPEDFATYYCQQYKYVPVTFGQGTKVEIK
For the molecule B1, the binding result with V2R-βarr1 complex and with C5aR1-βarr1 complex was “binds” in each case.

The record behind these values is paper doi:10.1101/651463 (bioRxiv, 2019).
